This assay concerns the target T1, p47^PHOX (83-390) (UniProt P14598 83-390).
T1 construct: p47^PHOX residues 83-390 (the first 82 amino acids deleted from the GST-p47^PHOX construct); Made from the GST-p47^PHOX construct (pGEX-6P-3); also called truncated p47^PHOX; p47^PHOX truncated at position 82; source: E. coli (BL21), purified with glutathione sepharose beads
T1 sequence (looked up): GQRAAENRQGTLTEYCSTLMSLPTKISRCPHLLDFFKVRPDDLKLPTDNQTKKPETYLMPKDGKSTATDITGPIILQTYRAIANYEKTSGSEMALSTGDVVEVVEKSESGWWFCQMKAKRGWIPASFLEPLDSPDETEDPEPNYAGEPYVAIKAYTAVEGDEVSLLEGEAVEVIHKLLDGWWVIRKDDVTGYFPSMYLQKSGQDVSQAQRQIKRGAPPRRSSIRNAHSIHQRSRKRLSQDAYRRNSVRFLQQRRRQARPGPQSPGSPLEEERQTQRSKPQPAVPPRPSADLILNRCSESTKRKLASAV
The assay can be described thus: pull-down; 214 nM p47^PHOX proteins with 286 nM GST or GST-p22^PHOX (132-195), 30 min at 4 °C in PBS pH 7.4, 0.1% Triton X-100; glutathione sepharose beads 1 h at 4 °C, eluted with 10 mM glutathione, immunoblot with anti-p47^PHOX. The note with it: both partners purified. Background: Immunoblotting shows a protein as a band on a membrane.

B1: GST-p22^PHOX (132-195) (domain or fragment, UniProt P13498 132-195, looked up)
chain: TPIEPKPRERPQIGGTIKQPPSNPPPRPPAEARKKPSEEEAAVAAGGPPGGPQVNPIPVTDEVV
notes: p22^PHOX residues 132-195
Take B1: the binding result is given as “binds”.

The record behind these values is article PMC9964254, “Caspase Inhibition Modulates Monocyte-Derived Macrophage Polarization in Damaged Tissues” (International Journal of Molecular Sciences, 2023).
